Here are results for 3 molecules from article PMC10085707.

The target of data set [1] is SpRadA K101A point mutant (Streptococcus pneumoniae) (UniProt Q8DRP0). Nature of the data set: negative-stain electron microscopy.
In data set [2] the target is SpRadA helicase (Streptococcus pneumoniae RadA), full length (Streptococcus pneumoniae) (UniProt Q8DRP0). Nature of the data set: negative-stain electron microscopy.
For the next data set, the target named is SpRecA (Streptococcus pneumoniae, UniProt P0A452 1-388). Nature of the data set: fluorescence anisotropy.

In data set [1], “SpRadA K101A point mutant (from UniProt Q8DRP0 1-420) (enzyme)” had a stoichiometry N of 6.
In data set [2], “SpRadA helicase (Streptococcus pneumoniae RadA), full length (from UniProt Q8DRP0 1-420) (enzyme)” had a stoichiometry N of 6.

B1: T65 (polydT 65-mer) (ssDNA)
DNA: TTTTTTTTTTTTTTTTTTTTTTTTTTTTTTTTTTTTTTTTTTTTTTTTTTTTTTTTTTTTTTTTT
As to B1, in the data set with SpRecA, the binding result is on record as “binds”.
